From patent US20180195091A1, “THERMOPHILIC MICROORGANISMS FOR CONVERSION OF LIGNOCELLULOSIC BIOMASS TO ETHANOL” (THE TRUSTEES OF DARTMOUTH COLLEGE, priority 2015, published 2018) come the findings set out here.

Data set [1] has as its target Clostridium thermocellum LL346 (ethanol-tolerant) AdhE, mutations P704L and H734R (Acetivibrio thermocellus, UniProt A3DCI2, H734R/P704L).
Data set [2] has as its system purified AdhE proteins in C. thermocellum, with the exception of LL346. Kind of data set: Product inhibition of purified AdhE. In kind it is biochemical, Clostridium thermocellum. The settings on record: concentration not stated. As for the experimental part: The E. coli crude extracts described above were incubated at 50° C. anaerobically for 20 min to denature E. coli proteins, and the denatured proteins were separated by centrifugation. In strains LL346 and LL1040, the AdhE proteins were heat labile, and lost activity after 50° C. incubation, so these cell extracts were applied directly to the purification column without heating. E. coli cells expressing the control plasmid pNT-CALML3 were subject to the same treatment as above, and its ADH and ALDH activities before and after heat treatment were measured (Table S3). […] For C. thermocellum and T. saccharolyticum AdhE, activity was measured at various stages during purification. […]
All the ALDH activity measurements mentioned in this study refer to the reaction in the acetaldehyde-producing direction. […] Decrease in absorbance at 340 nm caused by NAD(P)H oxidation was monitored by an Agilent 8453 UV-Vis spectrophotometer with Peltier temperature control. Protein concentration was determined using the Bradford method with bovine serum albumin (Thermo Scientific) as the standard. Specific activities are expressed as units per mg of protein. […] The software Visual Enzymics (SoftZymics) was used for non-linear regression to calculate the apparent Km, and kcat values in Table 10. kcat was calculated on the basis of a molecular weight of 97-kDa (26). […]

Substrate in data set [3]: NC(=O)C1=CN([C@@H]2O[C@H](COP(=O)(O)OP(=O)(O)OC[C@H]3O[C@@H](n4cnc5c(N)ncnc54)[C@H](O)[C@@H]3O)[C@@H](O)[C@H]2O)C=CC1
Kind of data set: purified protein, by the assay type. The conditions noted are these: pH 7.0; 55.0 °C.

Substrate in data set [4]: CC(=O)SCCNC(=O)CCNC(=O)[C@H](O)C(C)(C)COP(=O)(O)OP(=O)(O)OC[C@H]1O[C@@H](n2cnc3c(N)ncnc32)[C@H](O)[C@@H]1OP(=O)(O)O
The data set is described as follows: purified protein, by the assay type. The conditions noted are these: pH 7.0; 55.0 °C.

Substrate in data set [5]: CC=O
Kind of data set: purified protein, by the assay type. The settings on record: pH 7.0; 55.0 °C.

Substrate in data set [6]: NC(=O)C1=CN([C@@H]2O[C@H](COP(=O)(O)OP(=O)(O)OC[C@H]3O[C@@H](n4cnc5c(N)ncnc54)[C@H](O)[C@@H]3O)[C@@H](O)[C@H]2O)C=CC1
Kind of data set: purified protein, by the assay type. The settings on record: pH 7.0; 55.0 °C. The source holds these as a separate data set.

Substrate in data set [7]: NC(=O)C1=CN([C@@H]2O[C@H](COP(=O)(O)OP(=O)(O)OC[C@H]3O[C@@H](n4cnc5c(N)ncnc54)[C@H](OP(=O)(O)O)[C@@H]3O)[C@@H](O)[C@H]2O)C=CC1
The data set is described as follows: purified protein, by the assay type. The conditions noted are these: pH 7.0; 55.0 °C.

Substrate in data set [8]: CC=O
The data set is described as follows: ADH reaction (acetaldehyde reduction) of purified AdhE, apparent kinetics. The conditions noted are these: pH 7.0; 55.0 °C. It is filed as biochemical, Clostridium thermocellum. As for the experimental part: (§1) 500 μL of E. coli culture containing a plasmid with the adhE gene of interest was inoculated into 100 mL sterile LB broth Miller (Acros) with the appropriate antibiotic, and were grown aerobically to OD600 0.5 with shaking at 200 rpm at 37° C. (Eppendorf Innova 42 shaker). The E. coli strain harboring the pNT-CALML3 control plasmid (Invitrogen) was used as a negative control to measure native E. coli ADH or ALDH activity. The cultures were then transferred to sterile serum bottles, and 40 mM IPTG (Isopropyl β-D-1-thiogalactopyranoside) was used to induce protein expression. The serum bottles were then purged with nitrogen to generate an anaerobic protein expression environment, and the cells were cultured for 2 h at 37° C. before harvesting.
(§2) The E. coli crude extracts described above were incubated at 50° C. anaerobically for 20 min to denature E. coli proteins, and the denatured proteins were separated by centrifugation. In strains LL346 and LL1040, the AdhE proteins were heat labile, and lost activity after 50° C. incubation, so these cell extracts were applied directly to the purification column without heating. E. coli cells expressing the control plasmid pNT-CALML3 were subject to the same treatment as above, and its ADH and ALDH activities before and after heat treatment were measured (Table S3). The cell extracts containing His-tagged AdhE were then subjected to anaerobic affinity column purification (Ni-NTA spin columns, Qiagen). The purification was carried out according to the Qiagen protocol “Ni-NTA Agarose Purification of 6×His-tagged Proteins from E. coli under Native Conditions” with some modifications as described below. The column was first equilibrated with Equilibrium Buffer (50 mM NaH2PO4, 300 mM NaCl, 5 mM imidazole, 5 μM FeSO4, pH 7), then cell extracts were applied to the column and the column was washed twice with Wash Buffer (50 mM NaH2PO4, 300 mM NaCl, 50 mM imidazole, 20% ethanol, 5 μM FeSO4, pH 7). The His-tagged AdhE was eluted by addition of 200 μL Elution Buffer (50 mM NaH2PO4, 300 mM NaCl, 500 mM imidazole, 5 μM FeSO4, pH 7), this is “Eluent 1” in Table S3 and S4. Repeating this elution step sequentially generated more purified “Eluent 2” and “Eluent 3”. For C. thermocellum and T. saccharolyticum AdhE, activity was measured at various stages during purification. […] The degree of protein purity was estimated by gel densitometry using the image analysis software ImageJ, where the density of each visible gel band from Eluent 3 was plotted as peaks. The area of each peak was then integrated to generate percentages, which is an indicator of AdhE purity E. coli cell extracts with native AdhE expressed (i.e. without the His-tag) were used directly without purification.
(§3) All the ALDH activity measurements mentioned in this study refer to the reaction in the acetaldehyde-producing direction. All the ADH activity measurements mentioned in this study refer to the reaction in the ethanol-producing direction. For ADH (acetaldehyde reduction) reactions, the anaerobic reaction mixture contained 0.24 mM NADH or NADPH, 17.6 mM acetaldehyde, 1 mM DTT, 100 mM Tris-HCl, 5 μM FeSO4 and cell extract or purified protein solution (protein amount indicated separately for each assay). The final volume was 850 μL, the assay temperature was 55° C. and the assay was started by the addition of acetaldehyde. For ALDH (acetyl-CoA reduction) reactions, the acetaldehyde in the above anaerobic reaction mixture was substituted with 0.35 mM acetyl-CoA. Decrease in absorbance at 340 nm caused by NAD(P)H oxidation was monitored by an Agilent 8453 UV-Vis spectrophotometer with Peltier temperature control. Protein concentration was determined using the Bradford method with bovine serum albumin (Thermo Scientific) as the standard. Specific activities are expressed as units per mg of protein. One unit of activity=formation of 1 μmol of product per min Specific activities in Table 8 and Table 9 are reported for at least two biological replicates. […]

Substrate in data set [9]: NC(=O)C1=CN([C@@H]2O[C@H](COP(=O)(O)OP(=O)(O)OC[C@H]3O[C@@H](n4cnc5c(N)ncnc54)[C@H](O)[C@@H]3O)[C@@H](O)[C@H]2O)C=CC1
The data set is described as above. In kind it is biochemical, Clostridium thermocellum. The conditions noted are these: pH 7.0; 55.0 °C. As for the experimental part:
as §1, §2, §3

Substrate in data set [10]: NC(=O)C1=CN([C@@H]2O[C@H](COP(=O)(O)OP(=O)(O)OC[C@H]3O[C@@H](n4cnc5c(N)ncnc54)[C@H](O)[C@@H]3O)[C@@H](O)[C@H]2O)C=CC1
Kind of data set: ALDH reaction (acetyl-CoA reduction) of purified AdhE, apparent kinetics. It is filed as biochemical, Clostridium thermocellum. The settings on record: pH 7.0; 55.0 °C. As for the experimental part:
as §1, §2, §3

Substrate in data set [11]: CC(=O)SCCNC(=O)CCNC(=O)[C@H](O)C(C)(C)COP(=O)(O)OP(=O)(O)OC[C@H]1O[C@@H](n2cnc3c(N)ncnc32)[C@H](O)[C@@H]1OP(=O)(O)O
The data set is described as above. It is filed as biochemical, Clostridium thermocellum. The conditions noted are these: pH 7.0; 55.0 °C. As for the experimental part: as §1, §2, §3

The mark [12] stands for this setting: in the presence of 2.35 mM NAD^+.

Positions count from the first letter of the chain named. Numbers in names are those of the source. Where “and” joins values, the source holds several entries; their conditions need not be identical. Identical values can stand only once.

Sequence of Clostridium thermocellum LL346 (ethanol-tolerant) AdhE, mutations P704L and H734R (A3DCI2 1-873 H734R/P704L): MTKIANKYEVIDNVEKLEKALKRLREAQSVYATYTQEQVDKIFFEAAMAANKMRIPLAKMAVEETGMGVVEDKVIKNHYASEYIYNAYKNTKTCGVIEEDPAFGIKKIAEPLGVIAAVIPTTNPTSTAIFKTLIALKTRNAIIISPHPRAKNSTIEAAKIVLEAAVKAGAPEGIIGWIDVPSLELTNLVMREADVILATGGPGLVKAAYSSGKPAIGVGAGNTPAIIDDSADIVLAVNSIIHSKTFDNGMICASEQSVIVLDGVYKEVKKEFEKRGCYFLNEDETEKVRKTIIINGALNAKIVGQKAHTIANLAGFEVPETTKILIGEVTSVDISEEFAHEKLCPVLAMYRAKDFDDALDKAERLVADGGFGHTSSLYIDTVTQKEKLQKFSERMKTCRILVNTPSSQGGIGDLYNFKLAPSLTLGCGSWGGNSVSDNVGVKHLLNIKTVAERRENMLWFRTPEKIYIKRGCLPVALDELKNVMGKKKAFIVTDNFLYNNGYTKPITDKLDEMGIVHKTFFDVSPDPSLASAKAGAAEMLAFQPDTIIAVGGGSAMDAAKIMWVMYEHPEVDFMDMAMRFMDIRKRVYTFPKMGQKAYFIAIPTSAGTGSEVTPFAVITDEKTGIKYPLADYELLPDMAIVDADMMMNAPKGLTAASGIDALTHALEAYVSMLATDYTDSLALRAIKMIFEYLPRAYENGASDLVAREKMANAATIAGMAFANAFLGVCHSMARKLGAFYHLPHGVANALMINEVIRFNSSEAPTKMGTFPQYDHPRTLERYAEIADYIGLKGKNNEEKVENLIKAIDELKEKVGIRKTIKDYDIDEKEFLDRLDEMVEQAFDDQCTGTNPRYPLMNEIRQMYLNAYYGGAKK

Regarding `CCO` [ethanol], the “increase in ADH activity” value in data set [1] (purified adhe) amounted to 2 fold.

As to `NC(=O)c1ccc[n+]([C@@H]2O[C@H](COP(=O)([O-])OP(=O)(O)OC[C@H]3O[C@@H](n4cnc5c(N)ncnc54)[C@H](O)[C@@H]3O)[C@@H](O)[C@H]2O)c1` [NAD^+], in data set [1] (setting [12]), the ADH activity retained is on record as 98% and the ALDH activity retained is given as 92%. Moreover, the “inhibition by NAD^+” value in data set [1] (purified AdhE, concentration not stated) is “less than 10%”.

As for NAD(P)^+, in [2], the “activity inhibited by NAD(P)^+” value is “at least 70%”.

B1: (Acetivibrio thermocellus; D494G) (protein)
chain: MTKIANKYEVIDNVEKLEKALKRLREAQSVYATYTQEQVDKIFFEAAMAANKMRIPLAKMAVEETGMGVVEDKVIKNHYASEYIYNAYKNTKTCGVIEEDPAFGIKKIAEPLGVIAAVIPTTNPTSTAIFKTLIALKTRNAIIISPHPRAKNSTIEAAKIVLEAAVKAGAPEGIIGWIDVPSLELTNLVMREADVILATGGPGLVKAAYSSGKPAIGVGAGNTPAIIDDSADIVLAVNSIIHSKTFDNGMICASEQSVIVLDGVYKEVKKEFEKRGCYFLNEDETEKVRKTIIINGALNAKIVGQKAHTIANLAGFEVPETTKILIGEVTSVDISEEFAHEKLCPVLAMYRAKDFDDALDKAERLVADGGFGHTSSLYIDTVTQKEKLQKFSERMKTCRILVNTPSSQGGIGDLYNFKLAPSLTLGCGSWGGNSVSDNVGVKHLLNIKTVAERRENMLWFRTPEKIYIKRGCLPVALDELKNVMGKKKAFIVTGNFLYNNGYTKPITDKLDEMGIVHKTFFDVSPDPSLASAKAGAAEMLAFQPDTIIAVGGGSAMDAAKIMWVMYEHPEVDFMDMAMRFMDIRKRVYTFPKMGQKAYFIAIPTSAGTGSEVTPFAVITDEKTGIKYPLADYELLPDMAIVDADMMMNAPKGLTAASGIDALTHALEAYVSMLATDYTDSLALRAIKMIFEYLPRAYENGASDLVAREKMANAATIAGMAFANAFLGVCHSMARKLGAFYHLPHGVANALMINEVIRFNSSEAPTKMGTFPQYDHPRTLERYAEIADYIGLKGKNNEEKVENLIKAIDELKEKVGIRKTIKDYDIDEKEFLDRLDEMVEQAFDDQCTGTNPRYPLMNEIRQMYLNAYYGGAKK
Turning to B1, the Km (as a rule, the substrate concentration at which the rate is half of its maximum) in data set [3] was 20 ± 2 µM; in data set [4], 4 ± 0.5 µM; in [5], 2100 ± 200 µM and 1800 ± 200 µM; in data set [6] it was 400 ± 50 µM; in data set [7], 80 ± 20 µM. Also, the turnover number (kcat) (in general, the maximal rate divided by the concentration of active sites) is 64 ± 2 s⁻¹ in data set [3]; 202 ± 4 s⁻¹ in data set [4]; 318 s⁻¹ and 246 s⁻¹ in data set [5]; 319 ± 21 s⁻¹ in [6]; 295 ± 18 s⁻¹ in data set [7]. Besides, the catalytic efficiency (kcat/Km) – broadly, the second-order rate constant that governs catalysis at low substrate concentration – in data set [3] is 3.4e+06 M⁻¹ s⁻¹; in data set [4] it was 5.8e+07 M⁻¹ s⁻¹; in data set [5] it was 150000 M⁻¹ s⁻¹ and 140000 M⁻¹ s⁻¹; in data set [6], 890000 M⁻¹ s⁻¹; in [7], 3.8e+06 M⁻¹ s⁻¹.

B2: (Acetivibrio thermocellus) (protein)
chain: B1 chain with G494D
B2: the Km in [8] is 1300 ± 200 µM; in data set [9], 100 ± 20 µM; in data set [10], 60 ± 4 µM; in [11] it was 8 ± 2 µM. Moreover, the kcat is 238 ± 8 s⁻¹ in [8], 302 ± 13 s⁻¹ in data set [9], 152 ± 4 s⁻¹ in data set [10] and 297 ± 11 s⁻¹ in data set [11]. Also, the kcat/Km in data set [8] was 180000 M⁻¹ s⁻¹; in [9] it was 2.3e+06 M⁻¹ s⁻¹; in data set [10], 2.8e+06 M⁻¹ s⁻¹; in data set [11], 3.5e+07 M⁻¹ s⁻¹.
